Data: the DeepSol protein solubility set

Test: soluble on expression in E. coli; label from the status in PepcDB or PDB records
For “MGSDKIHHHHHHMYCNMLISLLTFISVEILYNKSNKKYGGNDMSIVQLYDITQIKSFIEHSNYESASYLYKLPQQYNEIDVLITDAIESPGVFSIKENDSIKAIILSFAYDKNKFKVIGPFVADNYVLSVDTFETLFKAMTSNQPDDAVFNFSFEEGIQQYKPLMKVIQASYNFTDYYIEARTRLEEDMHQPNIIPYHKGFYRAFSKLHTTTFKYQAQSPQDIIDSLDDHHHLFLFVSEGLLKGYLYLEIDSQQSIAEIKYFSSHVDYRLKGIAFELLAYALQYAFDNFDIRKVYFKIRNKNNKLIERFNGLGFHINYEYIKFKFESRNVKDQTIPE”, the “soluble on expression in E. coli” value was “not soluble”.
In the case of “MGHHHHHHSHATGNVCIEEIDVDGKFIRLKNTSEQDQPMGGWEMIRKIGDTSVSYKYTSRYVLKAGQTVTIWAANAGVTASPPTDLIWKNQNSWGTGEDVKVILKNSQGEEVAQRSTVFKT”, the “soluble on expression in E. coli” value was “not soluble”.
For “AMAISDPQSSTRNELETGSSSACPKVIYIFARASTEPGNMGISAGPIVADALERIYGANDVWVQGVGGPYLADLASNFLPDGTSSAAINEARRLFTLANTKCPNAAIVSGGYSQGTAVMAGSISGLSTTIKNQIKGVVLFGYTKNLQNLGRIPNFETSKTEVYCDIADAVCYGTLFILPAHFLYQTDAAVAAPRFLQARIG”, the “soluble on expression in E. coli” value was “soluble”.
With “MSKRKVAIIGSGNIGTDLMIKILRHGQHLEMAVMVGIDPQSDGLARARRMGVATTHEGVIGLMNMPEFADIDIVFDATSAGAHVKNDAALREAKPDIRLIDLTPAAIGPYCVPVVNLEANVDQLNVNMVTCGGQATIPMVAAVSRVARVHYAEIIASIASKSAGPGTRANIDEFTETTSRAIEVVGGAAKGKAIIVLNPAEPPLMMRDTVYVLSDEASQDDIEASINEMAEAVQAYVPGYRLKQRVQFEVIPQDKPVNLPGVGQFSGLKTAVWLEVEGAAHYLPAYAGNLDIMTSSALATAEKMAQSLARKAGEAA” the “soluble on expression in E. coli” value was “soluble”.
With “MAEPLLVVGLGNPGANYARTRHNLGFVVADLLAARLGAKFKAHKRSGAEVATGRSAGRSLVLAKPRCYMNESGRQIGPLAKFYSVAPANIIVIHDDLDLEFGRIRLKIGGGEGGHNGLRSVVAALGTKDFQRVRIGIGRPPGRKDPAAFVLENFTPAERAEVPTICEQAADATELLIEQGMEPAQNRVHAWKLAAALEHHHHHH” the “soluble on expression in E. coli” value was “soluble”.
For “MAERETYADFSVVEKQRNFLTAEEFPEGPYGSPRRDDAPVENKSTPWKEGQRHYSAFNYEFKSFHQNIPRRDPAAHPPHDDPHQSEQFPYNEGE”, the “soluble on expression in E. coli” value was “not soluble”.
With “MSDHQDGMKLEDIERQFLDVAQREGGLEAIQPTTGPLENEENLKSSTGGGGGEDDNDRKKRKRSRSRDRDTRRRSRSRDRGERRGGGGGGDRDRSRSRERRRGGGGRDEPRRRGGDDEARSRREPEPQKPREPKKYRFWDVPPTGFETTTPMEYKNMQAAGQVPRGSVQSAVPVVGPSVTCQSRRLYVGNIPFGCNEEAMLDFFNQQMHLCGLAQAPGNPILLCQINLDKNFAFIEFRSIDETTAGMAFDGINFMGQQLKVRRPRDYQPSQNTFDMNSRMPVSTIVVDSANKIFIGGLPNYLTEDQVKELLCSFGPLKAFSLNVDSQGNSKGYAFAEYLDPTLTDQAIAGLNGMQLGDKQLVVQLACANQQRHNTNLPNSASAIAGIDLSQGAGRATEILCLMNMVTEDELKADDEYEEILEDVRDECSKYGIVRSLEIPRPYEDHPVPGVGKVFVEFASTSDCQRAQAALTGRKFANRTVVTSYYDVDKYHNRQF” the “soluble on expression in E. coli” value was “soluble”.
For “MSGVRFPSGSLKDVRFFLHLFFSSKYGIIYVRYLDEEGTIMKQIIISVGREFGSGGHIVAQKLAEHYDIPIFNKELLEEMARKEGYSEKALEKYDEKPVNFGFMPLPYAGGNIPIEQEIAMKQFEFIKNKADAGESFVIVGRCADEILAYNPNLVSVFITGDRESKIARVMDREGLDRKQAINKMKRMDKIRKTYHNFYCRNKWGDSRGYDICINTGKTDFDTAKNMVVECVDKLKERSE”, the “soluble on expression in E. coli” value was “not soluble”.
In the case of “SNAIAVGSERSADGKGMLLANPHFPWNGAMRFYQMHLTIPGRLDVMGASLPGLPVVNIGFSRHLAWTHTVDTSSHFTLYRLALDPKDPRRYLVDGRSLPLEEKSVAIEVRGADGKLSRVEHKVYQSIYGPLVVWPGKLDWNRSEAYALRDANLENTRVLQQWYSINQASDVADLRRRVEALQGIPWVNTLAADEQGNALYMNQSVVPYLKPELIPACAIPQLVAEGLPALQGQDSRCAWSRDPAAAQAGITPAAQLPVLLRRDFVQNSNDSAWLTNPASPLQGFSPLVSQEKPIGPRARYALSRLQGKQPLEAKTLEEMVTANHVFSADQVLPDLLRLCRDNQGEKSLARACAALAQWDRGANLDSGSGFVYFQRFMQRFAELDGAWKEPFDAQRPLDTPQGIALDRPQVATQVRQALADAAAEVEKSGIPDGARWGDLQVSTRGQERIAIPGGDGHFGVYNAIQSVRKGDHLEVVGGTSYIQLVTFPEEGPKARGLLAFSQSSDPRSPHYRDQTELFSRQQWQTLPFSDRQIDADPQLQRLSIRE”, the “soluble on expression in E. coli” value was “soluble”.
In the case of “MGSDKIHHHHHHMITDPQIKACIHQHHLFSALGEEELCRLLGQAAKITLAAHENLFYQGDLAKRFYLVIQGHLQLYRTSLQGQDKVIEVVREGRTFAEALMFSRQASYPVSAQAVSHCTLVSFDSEGYLAMLRGNPDACIAIMAEMSVRLRKDINEVELLSVQNAQSRLLLFLLRNMQKIGDNQGRVELDIPKRVLASRLSIQPETFSRLMKKMVTEGIIGESRGAIDIKDLAKLYTSANMPLANQAIQTSEPLIRSGKAPCQQIAIEMV”, the “soluble on expression in E. coli” value was “not soluble”.
In the case of “MSASEFTLVPTTESDRTYIARLNFLTDVFGDEHADIGADFLEDYRFYVKQWDPTNGGLIAWSPKMIPAGGAWLVWGNNNDHGYGYVSEDIPEVAIAIEPRYRGKGVGSILLNKSLELARTLGAPGLSLSVDDGNPRAKKLYERLGFQHIRHSDAGFSIMCYRF”, the “soluble on expression in E. coli” value was “not soluble”.
With “MADYADAVVTQESALTTSPGETVTLTCRSSTGAVTTSNYASWVQEKPDHLFTGLIGGTNNRAPGVPARFSGSLIGDKAALTITGAQTEDEAIYFCALWYSNHWVFGGGTKLTVLGGGGGSGGGGSGGGGSGGGGS” the “soluble on expression in E. coli” value was “soluble”.
For “MGSDKIHHHHHHMMKKKWYIVLTMSGYEEKVKENIEKKVEATGIKNLVGRIVIPEEVVLDATSPSERLILSPKAKLHVNNGKDVNKGDLIAEEPPIYARRSGVIVDVKNVRKIVVETIDRKYTKTYYIPESAGIEPGLRVGTKVKQGLPLSKNEEYICELDGKIVEIERMKKVVVQTPDGEQDVYYIPLDVFDRDRIKKGKEVKQGEMLAEARKFFAKVSGRVEVVDYSTRKEIRIYKTKRRKLFPGYVFVEMIMNDEAYNFVRSVPYVMGFVSSGGQPVPVKDREMRPILRLAGLEEYEEKKKPVKVELGFKVGDMVKIISGPFEDFAGVIKEIDPERQELKVNVTIFGRETPVVLHVSEVEKIE”, the “soluble on expression in E. coli” value was “not soluble”.
In the case of “ELNKNFDAVVDTAIARWRRSGPVVAMTRPDLKHGRGGLRDFELIKALALGHLCNLPQLDAQHQLLLDARTLLHVHARRSRDVLDPEFAVDVAMDLGFVDRYHLGREIADAARAIDDGLTTALATARGILPRRTGFAFRNASRRPLDLDVVDANGTIELSKKPDLNDPALPLRVAAAAATTGLPVAESTWVRLNECPPLPEP”, the “soluble on expression in E. coli” value was “not soluble”.
For “MKFQWIGVLVFIGIVNCLISSQKLTVKENEERLKSCGNTFLPIPSINQTGKGFGFFNDKTYTYNSKSGWLLLAGHKNRSTRVYATAFPISEYHILISSRVMLTAEHKWIMNGKPFDKNNCSGGRHLDVPRDVLDNILFWYGKKPKKADISKARMFFACDNQDLKAYPVLIELNKTSKRPWAFNGVPCLADETTSSKLGDVVHFYGYSDYDLLHHKLLIKAVKDGGICTETYYTEEVGGPLVQNVSGKATVIGLKAPGSRENCELFYDLSKLQKEICDYSGVCGYEKPTLTTEPTPVTTEKSTVSTTISTSLETTIMQASSASPTSIKPSTTTEPSPLQASSKPATEPLLRPESTRRASSSASSKPEVQTTIPTEIRTSSLPTPFLKTSTTVTTTTPEPATVDYGDDHDMIGLDDEYGDESNKGVGKIDRIVGFFVLLLVIE”, the “soluble on expression in E. coli” value was “not soluble”.
For “MSEVVTDRLRMALEAMAQKDDDAAWEVIDGDDEINQLYLDLEDDCIDLLALQQPVAGDLRLIASSFKIITDLERIGDLAANLAEYTLDADRDMFPEVDVQAIGDRTIEMVTDAMAAYASADVEACYAIAERDDDIDERCRSASQTVIRDLIETEIDAATDDAEIEALMQDVSRLLLTVRDLERVGDHAVNISARTVYMVDNDDELIY”, the “soluble on expression in E. coli” value was “soluble”.
For “MKHQHQHQHQHQHQQPLQEEEQAHATSLPPRASSPPQILPQLSPEQLGMIEKLVAAQQQCNRRSFSDRLRVTPWPMAPDPHSREARQQRFAHFTELAIVSVQEIVDFAKQLPGFLQLSREDQIALLKTSAIEVMLLETSRRYNPGSESITFLKDFSYNREDFAKAGLQVEFINPIFEFSRAMNELQLNDAEFALLIAISIFSADRPNVQDQLQVERLQHTYVEALHAYVSIHHPHDRLMFPRMLMKLVSLRTLSSVHSEQVFALRLQDKKLPPLLSEIWDVHE”, the “soluble on expression in E. coli” value was “soluble”.
In the case of “MFEVPITLTNRKFAQRRKLKYQYINYISRRFDRISKKSTTTDSLPTPENSAAENNDEEEGQNSEAGTYRRSVLQQKKRRRERHWRSVVGEIYSTTESETDSQEEETEEGGEHDTGIDKEDSDEERKFWKKYEKPEKSFEIWRTVSSQNKQPINKQKMTYHNFKKIEKIPLRKMEIPLLHCTKENKLYFQSISRGLEPLKTSTSEVRNYRTRHIVTLTDLLHLNVSRHNWSLAYKIFATLIRIPGVQIKSLWGIGVEILDNLSNSSSGLDFLQWMCQIYSSKSRFVQNINYRSIVPPFQTGSRTHTAKFAITYLWSSLINCQKSMEPSSNIIDKPFDTENDLLQELIDKISEWVLTPPFMEDAEVWFIYASCHLLKADTLSRQFVNDNKNNDLIGLDRDIKINQVIKHIHYVRTFLKICLDKGGFAVPSRLIENQLKSFESRLYGEAQDIQERDVANVYDSIDNSSVENSFGDVYETNAEFLDTQLMDLSPEDNGLDEMHYSDEDSSE”, the “soluble on expression in E. coli” value was “not soluble”.
In the case of “MKVLDSRDFAKVKAIAIERASYRNIGALAVYIGSMTGMRISEVLALTWPDIDTKLCVIHVTRSWDHLYGTGFKPTKTDSSVRDIEISPSVIELLNKIHQEQAASYLRTGYRDEDQMIMRDPRHNVITDSACNKALHVIQNKAGIPEDKQITFHGLRHSHVSYLISKGVDIYYISKRLGHSDVTITMKVYGHLLDSQRKQEAHKAVLFMDQILEHHHHHH”, the “soluble on expression in E. coli” value was “not soluble”.
With “MAHHHHHHMHPFYTIRYPPSKGSNESQPILVTDTAIEPLFFCIVYSIEFQCPVQTTESRTANSRSSSFPFGGRASGSGGKREANELHVCPVENTSKLLGNVTYVSCLDHNPTLLASLQTAVDAARAIPIPEDEQKVPLQLCVRLLHKQTRWLWEESRPLVEWTFKIVKTRGLSYAAVPEASSGASARNTNVEFVHASGPAQIREVLQFILKHSYEAIDLNTFSDFKSGELVFEVFVDQAR” the “soluble on expression in E. coli” value was “soluble”.
For “MGSDKIHHHHHHMRLPLNQRVAILLHEGTTGTIGKTGLALLRYSEAPIVAVIDRNCAGQSLREITGIYRYVPIVKSVEAALEYKPQVLVIGIAPKGGGIPDDYWIELKTALQAGMSLVNGLHTPLANIPDLNALLQPGQLIWDVRKEPANLDVASGAARTLPCRRVLTVGTDMAIGKMSTSLELHWAAKLRGWRSKFLATGQTGVMLEGDGVALDAVRVDFAAGAVEQMVMRYGKNYDILHIEGQGSLLHPGSTATLPLIRGSQPTQLVLVHRAGQTHNGNNPHVPIPPLPEVIRLYETVASGGGAFGTVPVVGIALNTAHLDEYAAKEAIAHTIAETGLPCTDVVRFGADVLLDAVMQN”, the “soluble on expression in E. coli” value was “not soluble”.
With “MTKVTIKAPSDYLQTDWSGGETNQLFLYPEDGDYKKREFSYRLSTATVALRQTTFTRLDGYHRILMSLDKPITLSDLSHAKEISLAPFQPYAFEGDTRIVSRGTCQDINLMYDDQYQGQLLPVWSDTPFEAPKADCQLLYALSKLTYSVTNQANQELEANHLLVTEQEASLSDLKVCLNQTSPAQTPVAVWAGLWYKT” the “soluble on expression in E. coli” value was “not soluble”.
